Measured values as given in patent publication US20250041418A1.

Biological target: anti-EGFR antibody (Cetuximab)
Assay: cell-based or functional assay

For “CD16a, exogenously expressed on iNK cells”, the cytotoxic activity (ADCC activity) against A549 cells expressing EGFR, LDH assay, 4 hr co-culture in the presence of Cetuximab (fold against control iNK cells) was 2.
